Here are results for six molecules from publication PMC8755082, “Recognition of G-quadruplex RNA by a crucial RNA methyltransferase component, METTL14”.

For orientation: Kd means a measure of binding affinity in units of concentration.

The target in data set [1] is T1, METTL3 MTD (MTD3);METTL14 MTD-RGG (MTD14-RGG) (human?;human?, UniProt Q86U44;Q9HCE5 255-580;110-456, |). Put plainly: EMSA; K+ buffer; EMSA: 2.5 nM RNA, 10 mM potassium (or lithium) phosphate pH 7.5, 25 uM ZnCl2, 10 uM SAM, 0.5 mM DTT, 0.005% Tween 20, 2.5% ficoll, 50 ng/uL yeast tRNA, 4 C, 1 h; GST-RGG: 25 mM Tris-HCl pH 7.5 with 10 mM KCl or LiCl instead of phosphate. As to conditions: protein: recombinant;recombinant, tags: Strep-tag II;His6, copies: 1;1, label: 5' FAM.

Data set [2] concerns the target T1, METTL3 MTD (MTD3);METTL14 MTD-RGG …. Put plainly: EMSA; Li+ buffer; EMSA: 2.5 nM RNA, 10 mM potassium (or lithium) phosphate pH 7.5, 25 uM ZnCl2, 10 uM SAM, 0.5 mM DTT, 0.005% Tween 20, 2.5% ficoll, 50 ng/uL yeast tRNA, 4 C, 1 h; GST-RGG: 25 mM Tris-HCl pH 7.5 with 10 mM KCl or LiCl instead of phosphate. To be noted: protein: recombinant;recombinant; tags: Strep-tag II;His6; copies: 1;1; label: 5' FAM; no G4. (In general: In EMSA bound probe runs differently from free probe, usually more slowly.)

The target in data set [3] is METTL3 MTD (MTD3);METTL14 MTD without RGG (MTD14) (human?;human?, UniProt Q86U44;Q9HCE5 255-580;110-413, |). Put plainly: EMSA; K+ buffer; EMSA: 2.5 nM RNA, 10 mM potassium (or lithium) phosphate pH 7.5, 25 uM ZnCl2, 10 uM SAM, 0.5 mM DTT, 0.005% Tween 20, 2.5% ficoll, 50 ng/uL yeast tRNA, 4 C, 1 h; GST-RGG: 25 mM Tris-HCl pH 7.5 with 10 mM KCl or LiCl instead of phosphate. To be noted: protein: recombinant;recombinant; tags: Strep-tag II;His6; copies: 1;1; label: 5' FAM; intramolecular parallel G4 in K+; unfolded in Li+.
Chain of METTL3 MTD (MTD3);METTL14 MTD without RGG (MTD14) (Q86U44 255-580, chain 1 of 2): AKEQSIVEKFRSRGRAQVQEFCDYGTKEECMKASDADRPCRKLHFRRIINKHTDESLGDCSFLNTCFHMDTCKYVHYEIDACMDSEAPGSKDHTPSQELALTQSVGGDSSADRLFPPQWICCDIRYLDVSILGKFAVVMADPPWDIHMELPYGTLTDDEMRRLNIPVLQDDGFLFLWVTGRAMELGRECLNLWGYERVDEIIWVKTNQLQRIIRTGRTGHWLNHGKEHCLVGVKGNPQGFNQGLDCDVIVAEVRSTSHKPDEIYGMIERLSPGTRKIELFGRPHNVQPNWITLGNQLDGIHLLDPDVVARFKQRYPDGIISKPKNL
Chain of METTL3 MTD (MTD3);METTL14 MTD without RGG (MTD14) (Q9HCE5 110-413, chain 2 of 2): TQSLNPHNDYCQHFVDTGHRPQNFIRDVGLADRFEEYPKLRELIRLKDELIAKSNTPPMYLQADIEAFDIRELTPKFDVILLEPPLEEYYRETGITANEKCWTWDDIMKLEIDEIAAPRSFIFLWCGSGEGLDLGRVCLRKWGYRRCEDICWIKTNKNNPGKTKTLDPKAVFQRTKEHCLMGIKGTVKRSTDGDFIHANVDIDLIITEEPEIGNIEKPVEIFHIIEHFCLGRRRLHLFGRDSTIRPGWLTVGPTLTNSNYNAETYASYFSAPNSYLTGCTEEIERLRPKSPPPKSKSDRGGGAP

T1 sequence (Q86U44 255-580, chain 1 of 2): as the sequence (Q86U44 255-580, chain 1 of 2) above
T1 sequence (Q9HCE5 110-456, chain 2 of 2): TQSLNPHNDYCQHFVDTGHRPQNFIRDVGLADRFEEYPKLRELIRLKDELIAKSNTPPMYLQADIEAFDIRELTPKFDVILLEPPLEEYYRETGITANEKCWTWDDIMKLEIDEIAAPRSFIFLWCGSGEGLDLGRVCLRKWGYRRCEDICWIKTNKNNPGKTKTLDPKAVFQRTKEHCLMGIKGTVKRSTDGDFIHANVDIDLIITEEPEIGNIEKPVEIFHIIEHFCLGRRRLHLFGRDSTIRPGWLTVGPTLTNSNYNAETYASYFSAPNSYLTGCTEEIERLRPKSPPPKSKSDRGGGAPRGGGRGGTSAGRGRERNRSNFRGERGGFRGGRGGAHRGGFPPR

Regarding UUUUUUUUUUUUUUAGGGUUAGGGAGACAUUAGGGUUAGGG (structured_RNA) [G4 RNA3], the Kd in data set [1] (intramolecular G4 in K+, loops 3-8-3) was 29 ± 13 nM. In the case of UGAGUGUGAGUGUUUUAGACAUUUUUGAGUGUGAGUG (ssRNA) [Non-G4 RNA1], the Kd is 209 ± 94 nM in data set [1] (no G4) and 149 ± 11 nM in data set [2]. Consider UUAGGGUUAGGGUUUUAGACAUUUUUUAGGGUUAGGG (structured_RNA) [G4 RNA1], for which the Kd stood at 419 ± 109 nM in data set [3] and 35 ± 12 nM in data set [1] (intramolecular parallel G4 in K+, unfolded in Li+). As to UUUUUUUUUUUUUGAGUGUGAGUGAGACAUGAGUGUGAGUG (ssRNA) [Non-G4 RNA2], the equilibrium dissociation constant (Kd) in data set [1] (no G4) is 309 ± 85 nM. In the case of UUAGGGUUAGGGUUAGGGUUAGGGAGACAUUUUUUUUUUUU (structured_RNA) [G4 RNA4], the dissociation constant (Kd) in data set [1] (intramolecular G4 in K+, loops 3-3-3) stood at 35 ± 9 nM. As to UUAGGGUUAGGGUUAGGGUUUUAGACAUUUUUUAGGG (structured_RNA) [G4 RNA2], the Kd in data set [1] (intramolecular G4 in K+, loops 3-3-16) was 36 ± 11 nM.
